Experimental data from US20250263697.

Tests used:
[1] = molecular target: NSP12 (RNA-dependent RNA polymerase) (SARS-CoV-2) (UniProt P0DTD1)
[2] = tested on: NSP8 (primase) (SARS-CoV-2)
[3] = tested on: N (nucleocapsid) (SARS-CoV-2); settings: eCLIP in infected Vero E6 cells

Row | Substance | binding signal [1] [fold] | binding signal [2] [fold] | binding signal [3] [fold]
1 | SARS-CoV-2 genome 5' end, positive strand | 573 | 107 | –
2 | SARS-CoV-2 genome 7436-7526, positive strand | 13.7 | – | –
3 | SARS-CoV-2 genome 9602-9620, positive strand | – | – | 9.5
